Test results reported in patent publication US20070166719A1 (NEW ENGLAND BIOLABS, published 2007).

Target: T1, R-M-CspCI endonuclease-methyltransferase subunit (Citrobacter species 2144 (NEB#1398))
T1 construct: also called large subunit; R-M-subunit
T1 chain: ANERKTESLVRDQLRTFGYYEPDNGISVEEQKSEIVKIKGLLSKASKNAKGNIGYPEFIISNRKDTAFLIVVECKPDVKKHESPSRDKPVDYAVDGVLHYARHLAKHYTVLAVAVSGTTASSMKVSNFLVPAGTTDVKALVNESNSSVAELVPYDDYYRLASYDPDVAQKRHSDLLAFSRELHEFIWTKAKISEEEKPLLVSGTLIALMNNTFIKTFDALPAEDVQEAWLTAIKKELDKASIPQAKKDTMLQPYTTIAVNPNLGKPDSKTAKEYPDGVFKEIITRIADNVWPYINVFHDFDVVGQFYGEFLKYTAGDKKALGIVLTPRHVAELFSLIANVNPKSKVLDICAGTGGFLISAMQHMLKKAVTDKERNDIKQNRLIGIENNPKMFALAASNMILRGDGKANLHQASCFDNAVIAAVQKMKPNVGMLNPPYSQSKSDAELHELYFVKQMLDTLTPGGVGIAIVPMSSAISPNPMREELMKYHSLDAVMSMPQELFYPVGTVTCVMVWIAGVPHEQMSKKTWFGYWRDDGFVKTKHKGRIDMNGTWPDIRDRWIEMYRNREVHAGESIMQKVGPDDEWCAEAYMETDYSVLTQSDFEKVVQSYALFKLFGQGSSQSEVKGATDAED
Assay: HPLC of purified CspCI; molar ratio derived from the mass ratio 1:0.47

B1: CspCI specificity subunit (S-CspCI) (other)
chain: PKINDLFHLEYGHSLELNRLEQSTAADAVNFVGRAARNNGVTARVAPPPNLKPAAAGTISVALGGQGGAGVAFLQPRPYFCGRDVMVLTPKKHMTDQEKLWWVMCITANRFRFGFGRQANRTLKDLNLPAPQKTPSWVHTANPDAYQGVRSPASVHPVGTLAVSNWKAFILQDLFTIRKGQRLTKANMLPGTVPYIGASDTSNGVTAHIGQKPIHEGGTISVTYDGSIAEAFYQPSPFWASDAVNVLYPKGFTLTPATALFICAIIRMEKYRFNYGRKWHLERMRETVIRLPATATGAPDWDFMEKYIKTLPYSSQLQ
notes: also called small subunit; S-subunit
molar ratio (70 kDa : 35 kDa protein in the purified enzyme): 1.06 mol small subunit per mol large subunit
